According to patent US6084072A, “Purified lectin and methods of use” (The Regents of the University of Michigan, priority 1993, dated 2000):
“And” between values parts separate entries of the source, which are not always exact repeats. Equal values may be shown once.

Tests used:
amaranthin = amaranthin (Amaranthus caudatus, UniProt Q71QF2); assay: Precipitation of amaranthin by glycoproteins and glycoconjugates, native or glycosidase treated; format: binding; settings: untreated glycoprotein or glycoconjugate; 80 μg amaranthin
Protocol: Glycosidase digestions, and in particular exo-β-galactosidase digestions were carried out for 9 hours at 37° C. in 0.1 M sodium citrate, pH 4.3 using 0.1 unit of enzyme/μmol of terminal galactosyl group. Endo-α-N-acetylgalactosaminidase treatment of asialo-ovine submaxillary mucin was done as described in Sadler, J. E., Rearick, J. L., Paulson, J. C., and Hill, R. L. (1979). GSC Exo-α-N-acetylgalactosaminidase digestion of asialo-ovine submaxillary mucin was carried out according to the recommendations of Genzyme of Boston, Mass. Glycoproteins were analyzed for carbohydrate composition, before and after glycosidase treatment, as described.
Precipitation assays were conducted in 1.5 ml centrifuge tubes by the method of So and Goldstein. Indicated amounts of glycoprotein were added to 80 μg of amaranthin, and the total volume was adjusted to 250 μl with phosphate buffered saline. The tubes were incubated at 37° C. and then kept at 4° C. for 2 days. The precipitates were centrifuged, washed with cold Phosphate buffered saline, dissolved in 0.05 N NaOH and analyzed for protein by the method of Lowery et al. using bovine serum albumin as the standard. […] Inhibition was determined relative to the amount of precipitate formed in the control with no sugar added. […]

HNPCC tissues = assay: Lectin histochemistry, HNPCC rectal biopsies; format: binding, human; settings: biotinylated ACA 10 μg/mL or PNA 20 μg/mL
From the text: Rectal biopsies were obtained from individuals who were first degree relatives of patients with hereditary nonpolyposis colorectal cancer (HNPCC) as identified by H. T. Lynch, M.D. These patients were the siblings or offspring of index patients who fit the criteria for Lynch Syndrome I or II. See Drzeniek, Z., and Usowska, E. (1979) Arch. Immunol Ther. Exp. 27, 253-262. However, since there is no definitive genetic or phenotypic marker for this familial syndrome, it is not possible to be certain that these patients represent a single homogenous genetic abnormality. The biopsies were fixed in formalin, and embedded in paraffin for tissue sectioning.
(§1) Four micron paraffin embedded tissue sections attached to glass slides were deparaffinized by serial incubations in xylene (twice), absolute ethanol (thrice), 95% ethanol, 70% ethanol, water and finally equilibrated in phosphate buffered saline (PBS), pH 7.0, containing 0.1% bovine serum albumin (BSA) commercially available from Sigma Corp of St. Louis, Mo. The slides were blotted dry adjacent to the tissue sections, and biotinylated lectin was added at a concentration of 10 μg/ml (for ACA) and 20 μg/ml (for PNA) in a quantity sufficient to completely cover the hydrated tissue (100-2001 μl). The lectin was rinsed off after a 30 minute incubation by eight 2-second dips into phosphate buffered saline. […]

colonic adenocarcinoma = format: binding, human; settings: cancer specimens
[1] = test system: normal colonic epithelium; format: binding, human
[2] = test system: well differentiated colonic adenocarcinoma sections; assay: Inhibition of lectin binding with hapten sugars on tissue sections; set-up: species or system human; key to Labeling score: 4^+: Maximum labeling of the brown reaction product; 0: No staining of the slide compared to control sections; 1^+: trace or weak staining definitely not seen on control slides; 2+3^+: stronger staining, but definitely less than maximal
Protocol: Four micron paraffin embedded tissue sections attached to glass slides were deparaffinized by serial incubations in xylene (twice), absolute ethanol (thrice), 95% ethanol, 70% ethanol, water and finally equilibrated in phosphate buffered saline (PBS), pH 7.0, containing 0.1% bovine serum albumin (BSA) commercially available from Sigma Corp of St. Louis, Mo. The slides were blotted dry adjacent to the tissue sections, and biotinylated lectin was added at a concentration of 10 μg/ml (for ACA) and 20 μg/ml (for PNA) in a quantity sufficient to completely cover the hydrated tissue (100-2001 μl). The lectin was rinsed off after a 30 minute incubation by eight 2-second dips into phosphate buffered saline. The slides were again blotted, and the tissue covered with Streptavidin-horseradish peroxidase (HRP) obtained from Zymed Laboratories, San Francisco, Calif. at a concentration of 10 μg/ml for 30 minutes. The slides were rinsed as mentioned above, and the pigmented reaction product developed by the addition of a freshly prepared chromogen reagent solution prepared within two hours of use as follows.
3,3'-diaminobenzidine was aliqotted at 5 mg/mL in 0.01 M (Tris) tris hydroxy methyl amino methane saline, pH 7.5 and frozen at -70° C. until use. For use, the aliquot was thawed, diluted 1:10 in 0.01 M (Tris) tris hydroxy methyl amino methane saline pH 7.5, and 3.3 μL of 30% H2 O2 were added to each 5 ml. This solution was allowed to stand for 10 min, and 100-200 μl was applied to the tissue sections that had been incubated earlier with biotinylated lectin and Streptavidin-HRP. After 10 min, the slides were rinsed with albumin-free phosphate buffered saline. The tissues were briefly counterstained for 50 seconds with Gill's #3 hematoxylin bovine serum albumin, commercially available from Sigma Corp. of St. Louis, Mo., rinsed with water, and serially dehydrated using graded alcohols and xylene, and embedded in Permount, a trademarked, commercially available product of Allied-Fischer Scientific of Livonia, Mich.
The specificity of lectin binding was evaluated by preincubating the biotinylated lectin with inhibitory hapten sugar for 1-2 hours prior to its application to the tissue. In each instance, the reagents were prepared so that the final concentration of lectin on the slide was either 10 or 20 μg/ml and the hapten sugar was as indicated in the results. Galactose, lactose, GalNAc, and galactose-β1-3N-acetylgalactosamine-α-O-benzyl (T-antigen-α-O-benzyl) were also obtained from Sigma Corp.
The stained sections were examined with a light microscope using a 25× and 40× objective lenses and 10× eyepiece. Evaluation of lectin binding required the use of several approaches. First, the binding specificity was confirmed by coincubation of lectin with hapten sugars known to bind the lectin maximally. Maximum labeling of the brown reaction product was arbitrarily assigned a score 4^+. See Boland, C. R., Bresalier, R. S., and Roberts, J. A. "Assay of lectin binding sites in colonic cancer-associated mucins: comparison of fluorescence microscopy with a quantitative chromatographic technique." J. Histochem. Cytochem., 36: 1329-1334, 1988. No staining of the slide compared to control sections (i.e., in which lectin was omitted from the staining procedure) was assigned a score of 0. Intermediate scores of 1^+ (trace or weak staining definitely not seen on control slides) and 2+3^+ (stronger staining, but definitely less than maximal) were assigned. […] See Boland. This method was used to confirm the binding specificity to known "positive" tissues and to evaluate changes in lectin binding after neuraminidase treatment.
Specimens of well differentiated colonic cancers were incubated with biotinylated lectins. Working concentrations on the slide were 10 μg/ml for ACA and 20 μg/ml for PNA. The hapten sugars galactose (Gal), N-acetylgalactosamine (GalNAc), and Galβ1,3GalNAc-α-O-benzyl (T-antigen) were used to inhibit lectin binding to the tissues. […]

FAP colonic tissue = assay: Lectin histochemistry, familial adenomatous polyposis (FAP) colonic tissue; format: binding, human; settings: biotinylated ACA 10 μg/mL or PNA 20 μg/mL
From the text: Full thickness specimens of colonic tissue were obtained from colectomy specimens for familial adenomatous polyposis at Johns Hopkins Hospital, fixed in formalin, and embedded in paraffin for tissue sectioning. The tissue specimens contained normal-appearing flat mucosa familial adenomatous polyposis, or FAP-normal, as well as a polypoid, adenomatious tissue familial adenomatous polyposis, or FAP-abnormal.
as §1
Therefore, each individual crypt of Lieberkuhn was given a score from 0-4^+, and the labeling was expressed as a "weighted average", or, the sum of scores from 100 crypts, which could range from 0 (all crypts not labeled) to 400 (all 100 crypts maximally labeled). […]

[3] = test system: human red blood cells (A, B, and O); settings: see Lotan; cited from earlier work

amaranthin, sequence (Q71QF2 entry or part of it): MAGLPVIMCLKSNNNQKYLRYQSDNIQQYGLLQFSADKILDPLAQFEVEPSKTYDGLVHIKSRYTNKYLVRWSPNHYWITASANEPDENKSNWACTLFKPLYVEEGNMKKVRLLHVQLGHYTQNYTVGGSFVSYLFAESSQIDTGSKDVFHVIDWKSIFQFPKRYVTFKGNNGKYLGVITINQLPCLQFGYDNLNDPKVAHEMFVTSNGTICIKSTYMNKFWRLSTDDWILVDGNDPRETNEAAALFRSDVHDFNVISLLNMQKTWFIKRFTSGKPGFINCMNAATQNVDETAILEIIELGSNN

B1: asialoglycophorin: desialylated glycophorin (protein, UniProt P02724 20-150, looked up)
Glycophorin-A: LSTTEVAMHTSTSSSVTKSYISSQTNDTHKRDTYAATPRAHEVSEISVRTVYPPEEETGERVQLAHHFSEPEITLIIFGVMAGVIGTILLISYGIRRLIKKSPSDVKPLPSPDTDVPLSSVEIENPETSDQ
modifications: desialylated
notes: desialylated glycophorin
precipitation of amaranthin, in words (amaranthin): most active precipitating agent

B2: glycophorin: native glycophorin, major component of red blood cell membranes (protein, UniProt P02724 20-150, looked up)
Glycophorin-A: LSTTEVAMHTSTSSSVTKSYISSQTNDTHKRDTYAATPRAHEVSEISVRTVYPPEEETGERVQLAHHFSEPEITLIIFGVMAGVIGTILLISYGIRRLIKKSPSDVKPLPSPDTDVPLSSVEIENPETSDQ
precipitation of amaranthin, in words (amaranthin): small amount of precipitate

B3: PNA: peanut (Arachis hypogaea) agglutinin, T-antigen binding lectin (protein, UniProt P02872 24-273, looked up)
Galactose-binding lectin: AETVSFNFNSFSEGNPAINFQGDVTVLSNGNIQLTNLNKVNSVGRVLYAMPVRIWSSATGNVASFLTSFSFEMKDIKDYDPADGIIFFIAPEDTQIPAGSIGGGTLGVSDTKGAGHFVGVEFDTYSNSEYNDPPTDHVGIDVNSVDSVKTVPWNSVSGAVVKVTVIYDSSTKTLSVAVTNDNGDITTIAQVVDLKAKLPERVKFGFSASGSLGGRQIHLIRSWSFTSTLITTTRRSIDNNEKKIMNMASA
Staining (global score 0-3+) (HNPCC tissues): rarely binds and 0 and 1^+ | Effect of Newcastle disease virus neuraminidase on labeling (colonic adenocarcinoma): much less effect | Effect of V. Cholerae neuraminidase on labeling (colonic adenocarcinoma): greatly enhanced | Effect of neuraminidase treatment on labeling [1]: did not produce an increase | Labeling of normal colon in the tissue survey [1]: No labeling | Staining (global score 0-3+) ([1]; biotinylated ACA 10 μg/mL or PNA 20 μg/mL): does not bind and 0 | GalNAc concentration that inhibited labeling [2]: ≥ 100 mM | T-antigen concentration that inhibited labeling [2]: ≥ 100 µM | galactose concentration that inhibited labeling [2]: ≥ 10 mM | lactose concentration that inhibited labeling [2]: ≥ 10 mM | Labeling score ([2]; Gal 2.5 mM): Trace | Labeling score ([2]; Gal 10 mM): 0 | Labeling score ([2]; Gal 20 mM): 0 | Labeling score ([2]; Gal 100 mM): 0 | Labeling score ([2]; Gal 400 mM): 0 | Labeling score ([2]; GalNAc 100 mM): 0 | Labeling score ([2]; GalNAc 250 mM): 0 | Labeling score ([2]; Lactose 200 mM): 0 | Labeling score ([2]; Lactose 400 mM): 0 | Labeling score ([2]; T-antigen 100 μM): 0 | Labeling score ([2]; T-antigen 200 μM): 0 | Labeling score ([2]; T-antigen 400 μM): 0 | Staining (global score 0-3+) (FAP colonic tissue): does not bind and 0 | agglutination of native A, B, or O red blood cells, in words [3]: does not agglutinate
